Molecular target: GST F52(pBPa)
Assay: cross-linking; photocrosslinking through pBPa in whole N. meningitidis cells, UV light for the indicated times up to 2 hours; bacterial extracts on Western blot with anti-GST mAb

Sequence of GST F52(pBPa) (P08515 2-218): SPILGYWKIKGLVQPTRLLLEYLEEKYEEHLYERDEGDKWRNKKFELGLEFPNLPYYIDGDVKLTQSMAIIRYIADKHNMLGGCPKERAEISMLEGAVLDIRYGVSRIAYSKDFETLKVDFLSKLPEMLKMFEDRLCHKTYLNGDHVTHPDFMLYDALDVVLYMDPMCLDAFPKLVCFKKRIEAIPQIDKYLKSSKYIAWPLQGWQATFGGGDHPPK

stoichiometry N: 2
Substance: GST F52(pBPa) (enzyme)

From paper PMC7458321
